Test: In vitro enzyme assay: formation of vanillin with isoeugenol as the substrate
Format: biochemical
Details: purified recombinant protein; 10 mM isoeugenol, pH 7.0, 30° C., 10 min; negative control heat-denatured enzyme gave no vanillin
Procedure: The enzyme activity of the putative isoeugenol monooxygenase was assayed by measuring the formation of vanillin with isoeugenol as the substrate. The reaction mixture contained 10 mM isoeugenol, 100 mM potassium phosphate buffer (pH 7.0), 10% (v/v) ethanol and an appropriate amount of enzyme, in a total volume of 1 ml. The reaction was started, by adding isoeugenol as ethanol solution, carried out at 30° C. for 10 min with reciprocal shaking (160 strokes min^−1) and stopped with the addition of 1 ml of methanol. After centrifugation at […], the supernatant was analyzed by HPLC for the determination of isoeugenol and vanillin and vanillyl alcohol. VpIEM enzyme treated in boiling water for 5 minutes was used as the negative control.
HPLC analysis of isoeugenol and vanillin was carried out with a Vanquish Ultimate 3000 system. Intermediates were separated by reverse-phase chromatography on a Dionex Acclaim 120 C18 column (particle size 3 μm; 150 by 2.1 mm) with a gradient of 0.15% (volume/volume) acetic acid (eluant A) and methanol (eluant B) in a range of 60 to 100% (vol/vol) eluant B and at a flow rate of 0.4 ml/min. For quantification, all intermediates were calibrated with external standards. The compounds were identified by their retention times, as well as the corresponding spectra, which were identified with a diode array detector in the system.

B1: VpIEM: putative isoeugenol monooxygenase from Violaceomyces palustris, expressed in E. coli and purified (protein, listed as Violaceomyces paulstris)
chain: MAPAPTVQDAAPVAVAVPSKATNKGSFVHPTDILPSGWPTATDLSGGAQPRRFEGTIYDVMVRGTIPKELHGTFYRIMPDYAEAPTYYKGGELNAPIDGDGTVAAFRFKDGNVDYRQRFVETDRFKVERRARKSMYGLYRNPYTHHPCVRQTVDSTANTNVVMHAGRFLAMKENGNAYELDPHTLKTLGYNPFKLPSKTMTAHPKQDAVTGNLVGFGYEAKGLATKDVYYFEVDTQGNIVHDLWLEAPWCAFIHDCALTPNYLVLMLWPFEADIERMKAGGHHWAYDYDKPITWITIPRGAKSKDEVKYWYWKNGMPIHTAAGYEDEKGRIIIDSSLVHGNAFPFFPPDSEEQRKRQEADGTPIAQFVRWTIDPSKDPNERLPDPEVVLDTPSEFPQIDNRFMGKEYSSAFINVFMPDRSDTGKNVFQGLNGLCHYRRKEGTADFYYAGDNCLIQEPVFSPRSKDAPEGDGFVLAIVDRLDANRSEVVIIDTRDFTKAVAAVQLPFAIRSGIHGQWIQGNTIPDFDTRGLVDLPKEEHWAPPEASAYDPNM
modifications: (1)..(551) Amino Acid Sequence of VpIEM
conversion of isoeugenol to vanillin (enzyme activity, HPLC): able to catalyze the conversion of isoeugenol to vanillin
